Laboratory results: patent publication US20030068675, “Position dependent recognition of GNN nucleotide triplets by zinc fingers” (published 2003)
Positions count from the first letter of the chain named.

How the values were obtained:
Experiment in all cases: EMSA
Conditions in all cases: tags: MBP fusion
ZFP SBS#319 = ZFP SBS#319 (synthetic, UniProt P08047)
Description: (§1) Affinity is measured by titrating purified protein against a fixed amount of labeled double-stranded oligonucleotide target. The target typically comprises the natural binding site sequence flanked by the 3 bp found in the natural sequence and additional, constant flanking sequences. The natural binding site is typically 9 bp for a three-finger protein and 2×9 bp +intervening bases for a six finger ZFP. […] For the assay the target is added at a concentration of 1 nM or lower (the actual concentration is kept at least 10-fold lower than the expected dissociation constant), purified ZFPs are added at various concentrations, and the reaction is allowed to equilibrate for at least 45 min. In addition the reaction mixture also contains 10 mM Tris (pH 7.5), 100 mM KCl, 1 mM MgCl2, 0.1 mM ZnCl2, 5 mM DTT, 10% glycerol, 0.02% BSA. (NB: in earlier assays poly d(IC) was also added at […].) The equilibrated reactions are loaded onto a 10% polyacrylamide gel, which has been pre-run for 45 min in Tris/glycine buffer, then bound and unbound labeled target is resolved by electrophoresis at 150V.

ZFP SBS#320 = ZFP SBS#320 (synthetic)
Description: as §1

ZFP SBS#350 = target: T1, ZFP SBS#350 (synthetic)
T1 chain: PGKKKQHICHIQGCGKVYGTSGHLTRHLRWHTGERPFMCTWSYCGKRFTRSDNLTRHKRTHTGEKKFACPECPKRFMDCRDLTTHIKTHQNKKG
Description: as §1

ZFP SBS#251 = ZFP SBS#251 (synthetic)
Description: as §1

ZFP SBS#375 = target: T2, ZFP SBS#375 (synthetic)
T2 chain: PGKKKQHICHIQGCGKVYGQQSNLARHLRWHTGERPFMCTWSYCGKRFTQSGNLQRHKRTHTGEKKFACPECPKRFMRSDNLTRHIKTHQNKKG
Description: as §1

ZFP SBS#367 = ZFP SBS#367 (synthetic)
Description: as §1

ZFP SBS#381 = target: T3, ZFP SBS#381 (synthetic)
T3 chain: T2 chain with Q20R, Q21S, S22D, N23E, A25T, G52S, N53D, R78Q, D80G, N81D
Description: as §1

ZFP SBS#377 = target: T4, ZFP SBS#377 (synthetic)
T4 chain: T1 chain with T20Q, H23S, S51G, N53A, R56S, D78R, C79S, R80D, D81A, T84R
Description: as §1

ZFP SBS#309 = ZFP SBS#309 (synthetic)
Description: as §1

ZFP SBS#311 = target: T5, ZFP SBS#311 (synthetic)
T5 chain: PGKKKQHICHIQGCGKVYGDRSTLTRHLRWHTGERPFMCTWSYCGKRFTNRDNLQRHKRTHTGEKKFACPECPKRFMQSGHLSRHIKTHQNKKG
Description: as §1

ZFP SBS#312 = target: T6, ZFP SBS#312 (synthetic)
T6 chain: T5 chain with D20E, S22G, T25A
Description: as §1

ZFP SBS#314 = ZFP SBS#314 (synthetic)
Description: as §1

ZFP SBS#316 = target: T7, ZFP SBS#316 (synthetic)
T7 chain: T5 chain with D20E, S22G, T25A, N50Q
Description: as §1

ZFP SBS#315 = ZFP SBS#315 (synthetic)
Description: as §1

ZFP SBS#318 = target: T8, ZFP SBS#318 (synthetic)
T8 chain: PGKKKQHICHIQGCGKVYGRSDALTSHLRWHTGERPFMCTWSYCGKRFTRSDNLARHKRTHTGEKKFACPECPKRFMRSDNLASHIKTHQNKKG
Description: as §1

ZFP SBS#354 = ZFP SBS#354 (synthetic)
Description: as §1

ZFP SBS#355 = target: T9, ZFP SBS#355 (synthetic)
T9 chain: T1 chain with T20E, S21K, G22A, H23N, D78Q, C79R, R80S, D81N, T83V, T84R
Description: as §1

ZFP SBS#365 = ZFP SBS#365 (synthetic)
Description: as §1

ZFP SBS#297 = target: T10, ZFP SBS#297 (synthetic)
T10 chain: T1 chain with T20E, S21R, H23T, T25A, N53E, T55R, C79R, R80S, D81H, T83Q
Description: as §1

ZFP SBS#358 = ZFP SBS#358 (synthetic)
Description: as §1

ZFP SBS#307 = target: T11, ZFP SBS#307 (synthetic)
T11 chain: T2 chain with Q20R, Q21S, S22D, N23E, A25R, R78Q, D80G, T83S
Description: as §1

ZFP SBS#363 = ZFP SBS#363 (synthetic)
Description: as §1

ZFP SBS#361 = ZFP SBS#361 (synthetic)
Description: as §1

ZFP SBS#298 = target: T12, ZFP SBS#298 (synthetic)
T12 chain: T5 chain with D20Q, R21T, S22G, T23E, T25R, N50R, R51S, R56K, Q78T, H81D
Description: as §1

ZFP SBS#305 = ZFP SBS#305 (synthetic)
Description: as §1

ZFP SBS#302 = ZFP SBS#302 (synthetic)
Description: as §1

ZFP SBS#304 = target: T13, ZFP SBS#304 (synthetic)
T13 chain: T5 chain with D20Q, R21T, S22A, T23D, N50R, R51S, R56T, G80S, H81D
Description: as §1

ZFP SBS#300 = target: T14, ZFP SBS#300 (synthetic, UniProt P08047)
T14 chain: T5 chain with D20Q, R21T, S22A, T23D, T25R, N50R, R51S, G80S, H81D
Description: as §1

ZFP SBS#303 = ZFP SBS#303 (synthetic)
Description: as §1

ZFP SBS#306 = target: T15, ZFP SBS#306 (synthetic)
T15 chain: T5 chain with D20Q, R21T, S22A, T23S, N50R, R51S, R56T, G80S, H81D
Description: as §1

ZFP SBS#301 = target: T16, ZFP SBS#301 (synthetic)
T16 chain: T5 chain with D20Q, R21S, S22A, T23D, T25R, N50R, R51S, R56T, G80S, H81D
Description: as §1

ZFP SBS#299 = ZFP SBS#299 (synthetic)
Description: as §1

ZFP SBS#352 = ZFP SBS#352 (synthetic)
Description: as §1

ZFP SBS#321 = ZFP SBS#321 (synthetic)
Description: as §1

ZFP SBS#324 = ZFP SBS#324 (synthetic)
Description: as §1

ZFP SBS#323 = ZFP SBS#323 (synthetic)
Description: as §1

ZFP SBS#384 = target: T17, ZFP SBS#384 (synthetic)
T17 chain: T5 chain with T23A, R26T, N50D, D52S, N53H, Q55A, Q78R, G80D, H81A, S83A
Description: as §1

ZFP SBS#319, sequence (P08047 other isoform, or with tags, fused parts or gaps): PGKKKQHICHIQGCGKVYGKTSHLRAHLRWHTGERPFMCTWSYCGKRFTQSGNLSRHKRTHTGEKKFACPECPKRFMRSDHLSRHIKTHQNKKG
ZFP SBS#303 (synthetic), sequence (chain, as listed by the source): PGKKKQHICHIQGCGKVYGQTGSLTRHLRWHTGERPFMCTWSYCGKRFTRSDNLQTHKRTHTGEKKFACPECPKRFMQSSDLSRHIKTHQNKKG
ZFP SBS#361 (synthetic), sequence (chain, as listed by the source): as the sequence (P08047 other isoform, or with tags, fused parts or gaps) above, with K20R, T21S, S22D, R25T, A26R, G52S, N53A, S55T, S83T counted along it
ZFP SBS#299 (synthetic), sequence (chain, as listed by the source): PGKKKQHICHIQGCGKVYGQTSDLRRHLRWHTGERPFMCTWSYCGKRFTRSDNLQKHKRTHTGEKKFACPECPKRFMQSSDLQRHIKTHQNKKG
ZFP SBS#365 (synthetic), sequence (chain, as listed by the source): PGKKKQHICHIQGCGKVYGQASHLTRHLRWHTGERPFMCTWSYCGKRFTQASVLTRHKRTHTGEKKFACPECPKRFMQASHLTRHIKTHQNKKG
ZFP SBS#309 (synthetic), sequence (chain, as listed by the source): as the sequence (P08047 other isoform, or with tags, fused parts or gaps) above, with K20E, T21R, H23D, A26R, G52S, S55Q, R78Q, D80G counted along it
ZFP SBS#354 (synthetic), sequence (chain, as listed by the source): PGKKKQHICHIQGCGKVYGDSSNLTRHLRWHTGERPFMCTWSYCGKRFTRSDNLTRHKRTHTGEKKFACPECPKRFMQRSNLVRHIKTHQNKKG
ZFP SBS#302 (synthetic), sequence (chain, as listed by the source): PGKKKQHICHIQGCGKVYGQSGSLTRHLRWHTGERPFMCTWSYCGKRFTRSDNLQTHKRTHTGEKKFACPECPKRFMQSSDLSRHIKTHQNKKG
ZFP SBS#314 (synthetic), sequence (chain, as listed by the source): as the sequence (P08047 other isoform, or with tags, fused parts or gaps) above, with K20D, T21R, H23S, R25T, A26R, G52S, S55Q, R78Q, D80G counted along it
ZFP SBS#323 (synthetic), sequence (chain, as listed by the source): as the sequence (P08047 other isoform, or with tags, fused parts or gaps) above, with K20T, H23N, A26R, N53H, S55Q, R78D, S79R, S83T counted along it
ZFP SBS#324 (synthetic), sequence (chain, as listed by the source): as the sequence (P08047 other isoform, or with tags, fused parts or gaps) above, with K20T, H23N, A26R, N53H, S55Q, R78D, S79R, S83T counted along it
ZFP SBS#352 (synthetic), sequence (chain, as listed by the source): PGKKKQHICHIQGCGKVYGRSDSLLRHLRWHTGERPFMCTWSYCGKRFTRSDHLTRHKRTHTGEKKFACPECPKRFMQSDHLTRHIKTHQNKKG
ZFP SBS#358 (synthetic), sequence (chain, as listed by the source): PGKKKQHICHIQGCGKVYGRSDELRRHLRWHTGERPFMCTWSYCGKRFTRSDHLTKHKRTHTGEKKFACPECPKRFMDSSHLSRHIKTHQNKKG
ZFP SBS#320 (synthetic), sequence (chain, as listed by the source): as the sequence (P08047 other isoform, or with tags, fused parts or gaps) above, with K20R, T21S, S22D, R25T, A26R counted along it
ZFP SBS#321 (synthetic), sequence (chain, as listed by the source): as the sequence (P08047 other isoform, or with tags, fused parts or gaps) above, with K20T, H23N, A26R, N53H, S55Q, R78D, S79R, D80S, S83T counted along it
ZFP SBS#305 (synthetic), sequence (chain, as listed by the source): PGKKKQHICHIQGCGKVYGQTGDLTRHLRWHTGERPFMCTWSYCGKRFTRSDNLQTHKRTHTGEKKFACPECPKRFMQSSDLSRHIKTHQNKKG

B1: GGGGAAGGG (dsDNA)
DNA 1: GGGGAAGGG
DNA 2: CCCTTCCCC
Kd (ZFP SBS#319): 125 nM | Kd (ZFP SBS#320): 5 nM

B2: TCCGAGGGT (dsDNA)
DNA 1: TCCGAGGGT
DNA 2: ACCCTCGGA
Kd (ZFP SBS#350): 332 nM

B3: GCGGAGGCG (dsDNA)
DNA 1: GCGGAGGCG
DNA 2: CGCCTCCGC
Kd (ZFP SBS#251): 27.5 nM

B4: GAGGAAGAT (dsDNA)
DNA 1: GAGGAAGAT
DNA 2: ATCTTCCTC
Kd (ZFP SBS#375): 85 nM

B5: GGGGGCGGG (dsDNA)
DNA 1: GGGGGCGGG
DNA 2: CCCGCCCCC
Kd (ZFP SBS#367): 60 nM

B6: GCAGCTGCGC (dsDNA)
DNA 1: GCAGCTGCGC
DNA 2: GCGCAGCTGC
Kd (ZFP SBS#381): 1.5 nM

B7: GTGTTGGCAG (dsDNA)
DNA 1: GTGTTGGCAG
DNA 2: CTGCCAACAC
Kd (ZFP SBS#377): 89 nM

B8: GGAGATGCC (dsDNA)
DNA 1: GGAGATGCC
DNA 2: GGCATCTCC
Kd (ZFP SBS#309): 4000 nM | Kd (ZFP SBS#311): 170 nM | Kd (ZFP SBS#312): 2000 nM | Kd (ZFP SBS#314): 118 nM | Kd (ZFP SBS#316): 3000 nM | Kd (ZFP SBS#315): 265 nM

B9: TAGGAGATGC (dsDNA)
DNA 1: TAGGAGATGC
DNA 2: GCATCTCCTA
Kd (ZFP SBS#318): 100 nM

B10: GAAGAGGAC (dsDNA)
DNA 1: GAAGAGGAC
DNA 2: GTCCTCTTC
Kd (ZFP SBS#354): 28 nM | Kd (ZFP SBS#355): 20 nM

B11: GGTGCTGGT (dsDNA)
DNA 1: GGTGCTGGT
DNA 2: ACCAGCACC
Kd (ZFP SBS#365): 600 nM

B12: TGCGCGGCC (dsDNA)
DNA 1: TGCGCGGCC
DNA 2: GGCCGCGCA
Kd (ZFP SBS#297): 500 nM

B13: GGCTGGGCG (dsDNA)
DNA 1: GGCTGGGCG
DNA 2: CGCCCAGCC
Kd (ZFP SBS#358): 225 nM

B14: GAAGAAGCG (dsDNA)
DNA 1: GAAGAAGCG
DNA 2: CGCTTCTTC
Kd (ZFP SBS#307): 50.5 nM

B15: GGGTTTGGG (dsDNA)
DNA 1: GGGTTTGGG
DNA 2: CCCAAACCC
Kd (ZFP SBS#363): 200 nM | Kd (ZFP SBS#361): 130 nM

B16: GCTTAGGCA (dsDNA)
DNA 1: GCTTAGGCA
DNA 2: TGCCTAAGC
Kd (ZFP SBS#298): 4000 nM | Kd (ZFP SBS#305): 230 nM | Kd (ZFP SBS#302): 75 nM | Kd (ZFP SBS#304): 230 nM | Kd (ZFP SBS#300): 400 nM | Kd (ZFP SBS#303): 135 nM | Kd (ZFP SBS#306): 280 nM | Kd (ZFP SBS#301): 350 nM | Kd (ZFP SBS#299): 4000 nM

B17: GGAGGGGTG (dsDNA)
DNA 1: GGAGGGGTG
DNA 2: CACCCCTCC
Kd (ZFP SBS#352): 26 nM

B18: GGCGGAGAT (dsDNA)
DNA 1: GGCGGAGAT
DNA 2: ATCTCCGCC
Kd (ZFP SBS#321): 200 nM | Kd (ZFP SBS#324): 200 nM | Kd (ZFP SBS#323): 600 nM

B19: GTGGGCTTCA (dsDNA)
DNA 1: GTGGGCTTCA
DNA 2: TGAAGCCCAC
Kd (ZFP SBS#384): 60 nM
